B1: Tumor necrosis factor receptor superfamily member 6 (Homo sapiens), P25445 (parent)
chain: MLGIWTLLPLVLTSVARLSSKSVNAQVTDINSKGLELRKTVTTVETQNLEGLHHDGQFCHKPCPPGERKARDCTVNGDEPDCVPCQEGKEYTDKAHFSSKCRRCRLCDEGHGLEVEINCTRTQNTKCRCKPNFFCNSTVCEHCDPCTKCEHGIIKECTLTSNTKCKEEGSRSNLGWLCLLLLPIPLIVWVKRKEVQKTCRKHRKENQGSHESPTLNPETVAINLSDVDLSKYITTIAGVMTLSQVKGFVRKNGVNEAKIDEIKNDNVQDTAEQKVQLLRNWHQLHGKKEAYDTLIKDLKKANLCTLAEKIQTIILKDITSDSENSNFRNEIQSLV
B2: FAS-associated death domain protein (Homo sapiens), Q13158 (parent)
chain: MDPFLVLLHSVSSSLSSSELTELKFLCLGRVGKRKLERVQSGLDLFSMLLEQNDLEPGHTELLRELLASLRRHDLLRRVDDFEAGAAAGAAPGEEDLCAAFNVICDNVGKDWRRLARQLKVSDTKIDSIEDRYPRNLTERVRESLRIWKNTEKENATVAHLVGALRSCQMNLVADLVQEVQQARDLQNRSGAMSPMSWNSDASTSEAS

Variants of: B1
Details: with fadd_human FADD

Variant | effect of a mutation on the interaction
MLGIWTLLPLVLTSVARLSSKSVNAQVTDINSKGLELRKTVTTVETQNLEGLHHDGQFCHKPCPPGERKARDCTVNGDEPDCVPCQEGKEYTDKAHFSSKCRRCRLCDEGHGLEVEINCTRTQNTKCRCKPNFFCNSTVCEHCDPCTKCEHGIIKECTLTSNTKCKEEGSRSNLGWLCLLLLPIPLIVWVKRKEVQKTCRKHRKENQGSHESPTLNPETVAINLSDVDLSKYITTIAGVMTLSQVKGFVRKNGNNEAKIDEIKNDNVQDTAEQKVQLLRNWHQLHGKKEAYDTLIKDLKKANLCTLAEKIQTIILKDITSDSENSNFRNEIQSLV [V254N] | decreasing interaction

Variants of: B2
Details: with tnr6_human FAS

Variant | effect of a mutation on the interaction
MDPFLVLLHSVSSSLSSSELTELKFLCLGRVGKRKLERVQSGLDLFSMLLEQNDLEPGHTELLRELLASLRRHDLLRRVDDFEAGAAAGAAPGEEDLCAAFNVICDNVGKDWRRLARQLKNSDTKIDSIEDRYPRNLTERVRESLRIWKNTEKENATVAHLVGALRSCQMNLVADLVQEVQQARDLQNRSGAMSPMSWNSDASTSEAS [V121N] | decreasing interaction
